In paper PMC2602784:
Positions count from the first letter of the chain named.

Columns and labels:
Assay in all cases: EMSA
[1] = molecular target: T1, LldR K4A (Corynebacterium glutamicum ATCC 1332 …, UniProt Q8NLM6 1-231, K4A)
T1 sequence: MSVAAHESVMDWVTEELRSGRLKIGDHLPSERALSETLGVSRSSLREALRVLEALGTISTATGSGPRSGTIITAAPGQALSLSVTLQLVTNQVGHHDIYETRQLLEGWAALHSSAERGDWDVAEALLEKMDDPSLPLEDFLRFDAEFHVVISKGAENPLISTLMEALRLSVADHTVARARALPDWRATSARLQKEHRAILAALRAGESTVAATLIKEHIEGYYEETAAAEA

[2] = molecular target: T2, LldR G63A (Corynebacterium glutamicum ATCC 1332 …, UniProt Q8NLM6 1-231, G63A)
T2 sequence: T1 sequence with A4K, G63A

[3] = molecular target: T3, LldR R42A (Corynebacterium glutamicum ATCC 1332 …, UniProt Q8NLM6 1-231, R42A)
T3 sequence: T1 sequence with A4K, R42A

[4] = molecular target: T4, LldR R32A (Corynebacterium glutamicum ATCC 1332 …, UniProt Q8NLM6 1-231, R32A)
T4 sequence: T1 sequence with A4K, R32A

Measured: binding result

B1: cgl2917-site1 (dsDNA)
DNA 1: TTGTGGTCTGACCATGA
DNA 2: TCATGGTCAGACCACAA
no binding: all assays above
